Laboratory results reported in patent publication US20230365714A1 (published 2023).

B1: IgG1-ROR2-A-HC1LC3-FEAR (antibody)
heavy: QSVLESGGGLVQPGGSLRLSCTVSGFSLSSYSMSWVRQAPGKGLEWIGVIYVNSKTWYANWAKGRFTISKTSTTVDLKITSPTAEDTATYFCARGDAGYTTNSWLWGQGTLVTVSSASTKGPSVFPLAPSSKSTSGGTAALGCLVKDYFPEPVTVSWNSGALTSGVHTFPAVLQSSGLYSLSSVVTVPSSSLGTQTYICNVNHKPSNTKVDKRVEPKSCDKTHTCPPCPAPEFEGGPSVFLFPPKPKDTLMISRTPEVTCVVVAVSHEDPEVKFNWYVDGVEVHNAKTKPREEQYNSTYRVVSVLTVLHQDWLNGKEYKCKVSNKALPAPIEKTISKAKGQPREPQVYTLPPSREEMTKNQVSLTCLVKGFYPSDIAVEWESNGQPENNYKTTPPVLDSDGSFFLYSRLTVDKSRWQQGNVFSCSVMHEALHNHYTQKSLSLSPGK
VL: AFELTQSPSSLSASVGDRVTITCQASESIDNYLSWYQQKPGKAPKLLIYQAFKLASGVPSRFRGSGSGTDFTLTISSLQPEDFATYYCQSYSGISTTAFGGGTKVEIK
notes: Humanized variant
B2: IgG1-ROR2-A-HC2LC1-FEAR (antibody, V domains shown)
VH: QSVLESGGGLVQPGGSLRLSCTVSGFSLSSYSMSWVRQAPGKGLEWIGVIYVNSKTWYANWAKGRFTISKTSTTVYLQMNSLRAEDTATYFCARGDAGYTTNSWLWGQGTLVTVSS
VL: AFELTQSPSSLSASVGDRVTITCQASESIDNYCSWYQQKPGKAPKLLIYQAFKLASGVPSRFRGSGSGTDFTLTISSLQSEDFATYYCQSYSGISTTAFGGGTEVVIK
notes: Humanized variant
B3: IgG1-ROR2-A-HC2LC3-FEAR (antibody)
heavy: QSVLESGGGLVQPGGSLRLSCTVSGFSLSSYSMSWVRQAPGKGLEWIGVIYVNSKTWYANWAKGRFTISKTSTTVYLQMNSLRAEDTATYFCARGDAGYTTNSWLWGQGTLVTVSSASTKGPSVFPLAPSSKSTSGGTAALGCLVKDYFPEPVTVSWNSGALTSGVHTFPAVLQSSGLYSLSSVVTVPSSSLGTQTYICNVNHKPSNTKVDKRVEPKSCDKTHTCPPCPAPEFEGGPSVFLFPPKPKDTLMISRTPEVTCVVVAVSHEDPEVKFNWYVDGVEVHNAKTKPREEQYNSTYRVVSVLTVLHQDWLNGKEYKCKVSNKALPAPIEKTISKAKGQPREPQVYTLPPSREEMTKNQVSLTCLVKGFYPSDIAVEWESNGQPENNYKTTPPVLDSDGSFFLYSRLTVDKSRWQQGNVFSCSVMHEALHNHYTQKSLSLSPGK
VL: AFELTQSPSSLSASVGDRVTITCQASESIDNYLSWYQQKPGKAPKLLIYQAFKLASGVPSRFRGSGSGTDFTLTISSLQPEDFATYYCQSYSGISTTAFGGGTKVEIK
notes: Humanized variant
B4: IgG1-ROR2-A-HC1LC4-FEAR (antibody)
heavy: QSVLESGGGLVQPGGSLRLSCTVSGFSLSSYSMSWVRQAPGKGLEWIGVIYVNSKTWYANWAKGRFTISKTSTTVDLKITSPTAEDTATYFCARGDAGYTTNSWLWGQGTLVTVSSASTKGPSVFPLAPSSKSTSGGTAALGCLVKDYFPEPVTVSWNSGALTSGVHTFPAVLQSSGLYSLSSVVTVPSSSLGTQTYICNVNHKPSNTKVDKRVEPKSCDKTHTCPPCPAPEFEGGPSVFLFPPKPKDTLMISRTPEVTCVVVAVSHEDPEVKFNWYVDGVEVHNAKTKPREEQYNSTYRVVSVLTVLHQDWLNGKEYKCKVSNKALPAPIEKTISKAKGQPREPQVYTLPPSREEMTKNQVSLTCLVKGFYPSDIAVEWESNGQPENNYKTTPPVLDSDGSFFLYSRLTVDKSRWQQGNVFSCSVMHEALHNHYTQKSLSLSPGK
VL: DIQLTQSPSSLSASVGDRVTITCQASESIDNYLSWYQQKPGKAPKLLIYQAFKLASGVPSRFRGSGSGTDFTLTISSLQPEDFATYYCQSYSGISTTAFGGGTKVEIK
notes: Humanized variant
B5: IgG1-ROR2-A-HC2LC2-FEAR (antibody, V domains shown)
VH: QSVLESGGGLVQPGGSLRLSCTVSGFSLSSYSMSWVRQAPGKGLEWIGVIYVNSKTWYANWAKGRFTISKTSTTVYLQMNSLRAEDTATYFCARGDAGYTTNSWLWGQGTLVTVSS
VL: AFELTQSPSSLSASVGDRVTITCQASESIDNYLSWYQQKPGKAPKLLIYQAFKLASGVPSRFRGSGSGTDFTLTISSLQSEDFATYYCQSYSGISTTAFGGGTEVVIK
notes: Humanized variant

What follows are binders tested against T1, his-tagged ROR2 extracellular domain (ROR2-ECD, G&P Biosciences, cat. no. FCL0192) (human, UniProt Q01974 34-403) (assay: BLI (Octet), antibody on anti-human IgG Fc sensor, ROR2-ECD 1.56-100 nM as analyte).
T1 construct: Bought protein; also called human ROR2-ECD; recombinant human ROR2-ECD; not shown: his tag
T1 sequence (Q01974 34-403): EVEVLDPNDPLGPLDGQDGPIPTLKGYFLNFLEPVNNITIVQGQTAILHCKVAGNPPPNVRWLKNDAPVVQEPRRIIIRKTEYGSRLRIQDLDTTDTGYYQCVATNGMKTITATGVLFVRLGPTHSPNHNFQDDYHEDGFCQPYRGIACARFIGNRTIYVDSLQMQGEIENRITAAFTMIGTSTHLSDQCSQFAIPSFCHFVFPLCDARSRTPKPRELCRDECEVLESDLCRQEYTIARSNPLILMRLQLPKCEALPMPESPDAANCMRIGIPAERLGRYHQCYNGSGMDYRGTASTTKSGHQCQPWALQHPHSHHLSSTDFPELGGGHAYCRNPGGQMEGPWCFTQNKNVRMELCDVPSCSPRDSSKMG

Point of comparison: B2, Kd 1.7 nM. Against it:
- B1 — within 1.5-fold, 1.8 nM
- B3 — within 1.5-fold, 2 nM
- B4 — within 1.5-fold, 2 nM
- B5 — within 1.5-fold, 1.8 nM

Point of comparison: B4, koff 0.0012 s⁻¹. Against it:
- B1 — within 1.5-fold, 0.00097 s⁻¹
- B2 — within 1.5-fold, 0.00085 s⁻¹
- B3 — within 1.5-fold, 0.001 s⁻¹
- B5 — within 1.5-fold, 0.00089 s⁻¹

Point of comparison: B4, kon 560000 M⁻¹ s⁻¹. Against it:
- B1 — within 1.5-fold, 550000 M⁻¹ s⁻¹
- B2 — within 1.5-fold, 510000 M⁻¹ s⁻¹
- B3 — within 1.5-fold, 490000 M⁻¹ s⁻¹
- B5 — within 1.5-fold, 510000 M⁻¹ s⁻¹
